Results: publication PMC8184817, “Transmission of light signals from the light-oxygen-voltage core via the hydrophobic region of the β-sheet surface in aureochrome-1” (Scientific Reports, 2021)

Legend:
[1] = biological target: the molecule itself; test: SEC; light (L) state: 8 or 50 µM protein illuminated 2 min with blue light, column under continuous LED irradiation; Superdex 75, 400 mM NaCl, 20 mM Tris-HCl pH 7.0, 25 ± 1 °C, 0.5 mL/min; monomer to dimer
[2] = biological target: the molecule itself; test: SEC; dark (D) state: 8 or 50 µM protein incubated 20 min at 25 °C in the dark; Superdex 75 column, 400 mM NaCl, 20 mM Tris-HCl pH 7.0, 25 ± 1 °C, 0.5 mL/min; monomer to dimer
[3] = biological target: the molecule itself; test: dynamic light scattering (DLS); light (L) state: immediately after 1 min of blue light, 30-60 µM protein, 25 °C, hydrodynamic radius extrapolated to 0 µM protein; monomer to dimer
[4] = biological target: the molecule itself; test: dynamic light scattering (DLS); dark (D) state: 30-60 µM protein, 25 °C, hydrodynamic radius extrapolated to 0 µM protein; monomer to dimer

B1: Photozipper (PZ), N-terminally truncated aureochrome-1 of Vaucheria frigida, wild type (domain or fragment, UniProt A8QW55 113-348, looked up)
chain: GSISSELTEAQKVERRERNREHAKRSRVRKKFLLESLQQSVNELNHENNSLKESIREHLGPRGDSLIAQSSPEADTLLTDNPSKANRILEDPDYSLVKALQMAQQNFVITDASLPDNPIVYASRGFLTLTGYSLDQILGRNCRFLQGPETDPRAVDKIRNAITKGVDTSVCLLNYRQDGTTFWNLFFVAGLRDSKGNIVNYVGVQSKVSEDYAKLLVNEQNIEYKGVRTSNMLRRK
notes: aureochrome-1 of Vaucheria frigida (VfAUREO1), G113-K348 with C162S and C182S, encoded by the synthetic gene opZL; holds the bZIP and LOV domains; in the light (L) state FMN forms a covalent adduct with a conserved cysteine; also called wtPZ; source: recombinant protein
B1: binds [1].

B2: Photozipper (PZ) V314A mutant (domain or fragment, Vaucheria frigida, UniProt A8QW55 113-348, looked up)
chain: GSISSELTEAQKVERRERNREHAKRSRVRKKFLLESLQQSVNELNHENNSLKESIREHLGPRGDSLIAQSSPEADTLLTDNPSKANRILEDPDYSLVKALQMAQQNFVITDASLPDNPIVYASRGFLTLTGYSLDQILGRNCRFLQGPETDPRAVDKIRNAITKGVDTSVCLLNYRQDGTTFWNLFFVAGLRDSKGNIVNYAGVQSKVSEDYAKLLVNEQNIEYKGVRTSNMLRRK
notes: aureochrome-1 of Vaucheria frigida (VfAUREO1), G113-K348 with C162S and C182S (opZL gene), plus V314A; also called β-sheet mutant
B2: binds [1].

B3: Photozipper (PZ) V314I mutant (domain or fragment, Vaucheria frigida, UniProt A8QW55 113-348, looked up)
chain: GSISSELTEAQKVERRERNREHAKRSRVRKKFLLESLQQSVNELNHENNSLKESIREHLGPRGDSLIAQSSPEADTLLTDNPSKANRILEDPDYSLVKALQMAQQNFVITDASLPDNPIVYASRGFLTLTGYSLDQILGRNCRFLQGPETDPRAVDKIRNAITKGVDTSVCLLNYRQDGTTFWNLFFVAGLRDSKGNIVNYIGVQSKVSEDYAKLLVNEQNIEYKGVRTSNMLRRK
notes: aureochrome-1 of Vaucheria frigida (VfAUREO1), G113-K348 with C162S and C182S (opZL gene), plus V314I; also called β-sheet mutant
For B3, the “stoichiometry N” value [2] was 2.

B4: Photozipper (PZ) V316A mutant (domain or fragment, Vaucheria frigida, UniProt A8QW55 113-348, looked up)
chain: GSISSELTEAQKVERRERNREHAKRSRVRKKFLLESLQQSVNELNHENNSLKESIREHLGPRGDSLIAQSSPEADTLLTDNPSKANRILEDPDYSLVKALQMAQQNFVITDASLPDNPIVYASRGFLTLTGYSLDQILGRNCRFLQGPETDPRAVDKIRNAITKGVDTSVCLLNYRQDGTTFWNLFFVAGLRDSKGNIVNYVGAQSKVSEDYAKLLVNEQNIEYKGVRTSNMLRRK
notes: aureochrome-1 of Vaucheria frigida (VfAUREO1), G113-K348 with C162S and C182S (opZL gene), plus V316A; also called β-sheet mutant
B4: binds [2].

B5: Photozipper (PZ) L201A/L208A/L212A triple mutant (domain or fragment, Vaucheria frigida, UniProt A8QW55 113-348, looked up)
chain: GSISSELTEAQKVERRERNREHAKRSRVRKKFLLESLQQSVNELNHENNSLKESIREHLGPRGDSLIAQSSPEADTLLTDNPSKANRIAEDPDYSAVKAAQMAQQNFVITDASLPDNPIVYASRGFLTLTGYSLDQILGRNCRFLQGPETDPRAVDKIRNAITKGVDTSVCLLNYRQDGTTFWNLFFVAGLRDSKGNIVNYVGVQSKVSEDYAKLLVNEQNIEYKGVRTSNMLRRK
notes: aureochrome-1 of Vaucheria frigida (VfAUREO1), G113-K348 with C162S and C182S (opZL gene), plus L201A, L208A and L212A; also called A'α mutant
B5: binds [2].

B6: Photozipper (PZ) Q217A mutant (domain or fragment, Vaucheria frigida, UniProt A8QW55 113-348, looked up)
chain: GSISSELTEAQKVERRERNREHAKRSRVRKKFLLESLQQSVNELNHENNSLKESIREHLGPRGDSLIAQSSPEADTLLTDNPSKANRILEDPDYSLVKALQMAQANFVITDASLPDNPIVYASRGFLTLTGYSLDQILGRNCRFLQGPETDPRAVDKIRNAITKGVDTSVCLLNYRQDGTTFWNLFFVAGLRDSKGNIVNYVGVQSKVSEDYAKLLVNEQNIEYKGVRTSNMLRRK
notes: aureochrome-1 of Vaucheria frigida (VfAUREO1), G113-K348 with C162S and C182S (opZL gene), plus Q217A; also called hinge mutant
B6: binds [3].

B7: Photozipper (PZ) L208A mutant (domain or fragment, Vaucheria frigida, UniProt A8QW55 113-348, looked up)
chain: GSISSELTEAQKVERRERNREHAKRSRVRKKFLLESLQQSVNELNHENNSLKESIREHLGPRGDSLIAQSSPEADTLLTDNPSKANRILEDPDYSAVKALQMAQQNFVITDASLPDNPIVYASRGFLTLTGYSLDQILGRNCRFLQGPETDPRAVDKIRNAITKGVDTSVCLLNYRQDGTTFWNLFFVAGLRDSKGNIVNYVGVQSKVSEDYAKLLVNEQNIEYKGVRTSNMLRRK
notes: aureochrome-1 of Vaucheria frigida (VfAUREO1), G113-K348 with C162S and C182S (opZL gene), plus L208A; also called L208L (as printed once); A'α mutant
B7: binds [2].

B8: Photozipper (PZ) L212A mutant (domain or fragment, Vaucheria frigida, UniProt A8QW55 113-348, looked up)
chain: GSISSELTEAQKVERRERNREHAKRSRVRKKFLLESLQQSVNELNHENNSLKESIREHLGPRGDSLIAQSSPEADTLLTDNPSKANRILEDPDYSLVKAAQMAQQNFVITDASLPDNPIVYASRGFLTLTGYSLDQILGRNCRFLQGPETDPRAVDKIRNAITKGVDTSVCLLNYRQDGTTFWNLFFVAGLRDSKGNIVNYVGVQSKVSEDYAKLLVNEQNIEYKGVRTSNMLRRK
notes: aureochrome-1 of Vaucheria frigida (VfAUREO1), G113-K348 with C162S and C182S (opZL gene), plus L212A; also called A'α mutant
B8: binds [4].

B9: Photozipper (PZ) F219V mutant (domain or fragment, Vaucheria frigida, UniProt A8QW55 113-348, looked up)
chain: GSISSELTEAQKVERRERNREHAKRSRVRKKFLLESLQQSVNELNHENNSLKESIREHLGPRGDSLIAQSSPEADTLLTDNPSKANRILEDPDYSLVKALQMAQQNVVITDASLPDNPIVYASRGFLTLTGYSLDQILGRNCRFLQGPETDPRAVDKIRNAITKGVDTSVCLLNYRQDGTTFWNLFFVAGLRDSKGNIVNYVGVQSKVSEDYAKLLVNEQNIEYKGVRTSNMLRRK
notes: aureochrome-1 of Vaucheria frigida (VfAUREO1), G113-K348 with C162S and C182S (opZL gene), plus F219V; also called β-sheet mutant
In the case of B9, the “stoichiometry N” value [2] is reported as 2.

B10: Photozipper (PZ) L303A mutant (domain or fragment, Vaucheria frigida, UniProt A8QW55 113-348, looked up)
chain: GSISSELTEAQKVERRERNREHAKRSRVRKKFLLESLQQSVNELNHENNSLKESIREHLGPRGDSLIAQSSPEADTLLTDNPSKANRILEDPDYSLVKALQMAQQNFVITDASLPDNPIVYASRGFLTLTGYSLDQILGRNCRFLQGPETDPRAVDKIRNAITKGVDTSVCLLNYRQDGTTFWNLFFVAGARDSKGNIVNYVGVQSKVSEDYAKLLVNEQNIEYKGVRTSNMLRRK
notes: aureochrome-1 of Vaucheria frigida (VfAUREO1), G113-K348 with C162S and C182S (opZL gene), plus L303A; also called β-sheet mutant
B10: binds [3].

B11: Photozipper (PZ) F299V mutant (domain or fragment, Vaucheria frigida, UniProt A8QW55 113-348, looked up)
chain: GSISSELTEAQKVERRERNREHAKRSRVRKKFLLESLQQSVNELNHENNSLKESIREHLGPRGDSLIAQSSPEADTLLTDNPSKANRILEDPDYSLVKALQMAQQNFVITDASLPDNPIVYASRGFLTLTGYSLDQILGRNCRFLQGPETDPRAVDKIRNAITKGVDTSVCLLNYRQDGTTFWNLFVVAGLRDSKGNIVNYVGVQSKVSEDYAKLLVNEQNIEYKGVRTSNMLRRK
notes: aureochrome-1 of Vaucheria frigida (VfAUREO1), G113-K348 with C162S and C182S (opZL gene), plus F299V; also called β-sheet mutant
B11: binds [3].

B12: Photozipper (PZ) N218A mutant (domain or fragment, Vaucheria frigida, UniProt A8QW55 113-348, looked up)
chain: GSISSELTEAQKVERRERNREHAKRSRVRKKFLLESLQQSVNELNHENNSLKESIREHLGPRGDSLIAQSSPEADTLLTDNPSKANRILEDPDYSLVKALQMAQQAFVITDASLPDNPIVYASRGFLTLTGYSLDQILGRNCRFLQGPETDPRAVDKIRNAITKGVDTSVCLLNYRQDGTTFWNLFFVAGLRDSKGNIVNYVGVQSKVSEDYAKLLVNEQNIEYKGVRTSNMLRRK
notes: aureochrome-1 of Vaucheria frigida (VfAUREO1), G113-K348 with C162S and C182S (opZL gene), plus N218A; also called hinge mutant
B12: binds [3].

B13: Photozipper (PZ) Q216A mutant (domain or fragment, Vaucheria frigida, UniProt A8QW55 113-348, looked up)
chain: GSISSELTEAQKVERRERNREHAKRSRVRKKFLLESLQQSVNELNHENNSLKESIREHLGPRGDSLIAQSSPEADTLLTDNPSKANRILEDPDYSLVKALQMAAQNFVITDASLPDNPIVYASRGFLTLTGYSLDQILGRNCRFLQGPETDPRAVDKIRNAITKGVDTSVCLLNYRQDGTTFWNLFFVAGLRDSKGNIVNYVGVQSKVSEDYAKLLVNEQNIEYKGVRTSNMLRRK
notes: aureochrome-1 of Vaucheria frigida (VfAUREO1), G113-K348 with C162S and C182S (opZL gene), plus Q216A; also called hinge mutant
B13: binds [3].

B14: Photozipper (PZ) L201A mutant (domain or fragment, Vaucheria frigida, UniProt A8QW55 113-348, looked up)
chain: GSISSELTEAQKVERRERNREHAKRSRVRKKFLLESLQQSVNELNHENNSLKESIREHLGPRGDSLIAQSSPEADTLLTDNPSKANRIAEDPDYSLVKALQMAQQNFVITDASLPDNPIVYASRGFLTLTGYSLDQILGRNCRFLQGPETDPRAVDKIRNAITKGVDTSVCLLNYRQDGTTFWNLFFVAGLRDSKGNIVNYVGVQSKVSEDYAKLLVNEQNIEYKGVRTSNMLRRK
notes: aureochrome-1 of Vaucheria frigida (VfAUREO1), G113-K348 with C162S and C182S (opZL gene), plus L201A; also called A'α mutant
B14: binds [2].
